Fold fibrin binding against full-length t-PA and percent fibrin binding data for two substances are collected here from US20150259666A1.

Experiment [1] deals with fibrin (clot prepared from fibrinogen with bovine thrombin). As to the kind of experiment: fibrin clot binding assay; ratio of CT-b to full-length t-PA.
For experiment [2] the target is unchanged. The experiment is described as follows: fibrin clot binding assay, 0.3 mg/ml fibrinogen; bound enzyme = total minus free in supernatant by ELISA. A general note: An ELISA detects its analyte on a solid surface through an enzyme-linked reagent.
Experiment [3] shares this target. As to the kind of experiment: fibrin clot binding assay, 0.1 mg/ml fibrinogen; bound enzyme = total minus free in supernatant by ELISA.

Turning to “chimeric truncated tissue plasminogen activator (CT t-PA) or CT-b (from UniProt P98119 37-82; P00750 82-214; P00750 297-562) (enzyme)”, the fold fibrin binding against full-length t-PA in experiment [1] turned out to be 1.2 fold. Also, the percent fibrin binding stood at 60% in experiment [2] and 28% in experiment [3].

On to “full length t-PA (native human tissue plasminogen activator) (from UniProt P00750 36-562) (enzyme)”, for which the percent fibrin binding in experiment [2] worked out at 51%; in experiment [3], 24%.
